Data set [1] relates to GR20, poly(GR) dipeptide repeat peptide. Put plainly: BLI. To be noted: apparent Kd, 1:1 equilibrium fit; BLI: 10 mM Tris-HCl, 1 mM disodium EDTA, pH 8.0, 150 mM NaCl, 0.1 mg/ml BSA, 0.01% Tween-20, 25 C; RNA on streptavidin ….
The test system of data set [2] is PR20, poly(PR) dipeptide repeat peptide. The data set can be described thus: BLI. The note with it: apparent Kd, 1:1 equilibrium fit; BLI: 10 mM Tris-HCl, 1 mM disodium EDTA, pH 8.0, 150 mM NaCl, 0.1 mg/ml BSA, 0.01% Tween-20, 25 C; RNA on streptavidin ….

“GAGAAGAGAAGAGAAGAGAAGAGAA [poly(GAAGA) RNA]”: the Kd in data set [1] amounted to 3.6 nM; in data set [2] it was 2.6 nM.
On the same counts, the results for “AUAAUAUAAUAUAAUAUAAUAUAAU [poly(AUAAU) RNA]” are 6.1 nM and 11.1 nM.

For the origin of these results see publication PMC10338859.
